Data reported in the supplement of paper PMC9112550, “Optimization of the antimicrobial peptide Bac7 by deep mutational scanning” (BMC Biology, 2022).

These sequences were tested on Escherichia coli TOP10 (assay: shrunken log2 fold change of peptide-encoding DNA abundance (4.5 h post-induction vs induction); higher = less antimicrobial activity (less host growth inhibition)). Settings: time post-induction: 4.5 h; library: site-saturation at positions 5, 18, 19, 20.
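Further: peptides expressed intracellularly from a pBAD plasmid library in pooled LB shake-flask culture, induced with 0.3% L-arabinose, DNA abundance read by NGS, three biological replicates, DESeq2 with apeglm shrinkage.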

Sequence	shrunken log2 fold change
RRIRWRPPRLPRPRPRPNFRPRP	0.298
RRIRWRPPRLPRPRPRPNFTPRP	-0.0319
RRIRWRPPRLPRPRPRPNFWPRP	0.224
RRIRWRPPRLPRPRPRPNGPPRP	-0.0107
RRIRWRPPRLPRPRPRPNHDPRP	-0.193
RRIRWRPPRLPRPRPRPNHQPRP	-0.342
RRIRWRPPRLPRPRPRPNISPRP	-0.279
RRIRWRPPRLPRPRPRPNKVPRP	-0.129
RRIRWRPPRLPRPRPRPNNEPRP	-0.0931
RRIRWRPPRLPRPRPRPNNKPRP	-0.392
RRIRWRPPRLPRPRPRPNNMPRP	-0.345
RRIRWRPPRLPRPRPRPNQAPRP	-0.0796
RRIRWRPPRLPRPRPRPNRCPRP	0.0312
RRIRWRPPRLPRPRPRPNRGPRP	0.172
RRIRWRPPRLPRPRPRPNSSPRP	-0.0636
RRIRWRPPRLPRPRPRPNSWPRP	-0.0727
RRIRWRPPRLPRPRPRPNTEPRP	-0.324
RRIRWRPPRLPRPRPRPNTHPRP	-0.231
RRIRWRPPRLPRPRPRPNTYPRP	0.0764
RRIRWRPPRLPRPRPRPNVPPRP	-0.144
RRIRWRPPRLPRPRPRPNWMPRP	-0.11
RRIRWRPPRLPRPRPRPNWSPRP	-0.0695
RRIRWRPPRLPRPRPRPNYAPRP	-0.0925
RRIRWRPPRLPRPRPRPPAFPRP	0.204
RRIRWRPPRLPRPRPRPPAQPRP	0.54

Sequence	shrunken log2 fold change
RRIRWRPPRLPRPRPRPPARPRP	0.726
RRIRWRPPRLPRPRPRPPCTPRP	0.124
RRIRWRPPRLPRPRPRPPCVPRP	0.301
RRIRWRPPRLPRPRPRPPDIPRP	0.238
RRIRWRPPRLPRPRPRPPEQPRP	0.153
RRIRWRPPRLPRPRPRPPGMPRP	0.759
RRIRWRPPRLPRPRPRPPGQPRP	0.123
RRIRWRPPRLPRPRPRPPHAPRP	1.04
RRIRWRPPRLPRPRPRPPHKPRP	0.339
RRIRWRPPRLPRPRPRPPKEPRP	0.433
RRIRWRPPRLPRPRPRPPKPPRP	0.648
RRIRWRPPRLPRPRPRPPKTPRP	0.199
RRIRWRPPRLPRPRPRPPLEPRP	0.474
RRIRWRPPRLPRPRPRPPLNPRP	0.188
RRIRWRPPRLPRPRPRPPLWPRP	0.558
RRIRWRPPRLPRPRPRPPNHPRP	0.0941
RRIRWRPPRLPRPRPRPPNIPRP	-0.446
RRIRWRPPRLPRPRPRPPNVPRP	0.0153
RRIRWRPPRLPRPRPRPPPPPRP	0.958
RRIRWRPPRLPRPRPRPPQQPRP	0.163
RRIRWRPPRLPRPRPRPPRHPRP	0.608
RRIRWRPPRLPRPRPRPPRIPRP	0.245
RRIRWRPPRLPRPRPRPPSLPRP	0.115
RRIRWRPPRLPRPRPRPPSSPRP	0.778
RRIRWRPPRLPRPRPRPPTFPRP	-0.0697

Sequence	shrunken log2 fold change
RRIRWRPPRLPRPRPRPPTVPRP	0.144
RRIRWRPPRLPRPRPRPPTYPRP	-0.104
RRIRWRPPRLPRPRPRPPVAPRP	0.983
RRIRWRPPRLPRPRPRPPVMPRP	0.00935
RRIRWRPPRLPRPRPRPPWAPRP	0.452
RRIRWRPPRLPRPRPRPPWDPRP	0.131
RRIRWRPPRLPRPRPRPPWVPRP	-0.00745
RRIRWRPPRLPRPRPRPPYSPRP	-0.262
RRIRWRPPRLPRPRPRPQAGPRP	0.335
RRIRWRPPRLPRPRPRPQAWPRP	0.23
RRIRWRPPRLPRPRPRPQCDPRP	0.462
RRIRWRPPRLPRPRPRPQDIPRP	-0.352
RRIRWRPPRLPRPRPRPQEEPRP	0.0983
RRIRWRPPRLPRPRPRPQFAPRP	0.189
RRIRWRPPRLPRPRPRPQFEPRP	1.87
RRIRWRPPRLPRPRPRPQGPPRP	1.32
RRIRWRPPRLPRPRPRPQGWPRP	0.0714
RRIRWRPPRLPRPRPRPQHGPRP	-0.164
RRIRWRPPRLPRPRPRPQKEPRP	0.0282
RRIRWRPPRLPRPRPRPQLFPRP	0.0645
RRIRWRPPRLPRPRPRPQLIPRP	-0.153
RRIRWRPPRLPRPRPRPQLNPRP	0.679
RRIRWRPPRLPRPRPRPQMMPRP	-0.0594
RRIRWRPPRLPRPRPRPQMSPRP	-0.149
RRIRWRPPRLPRPRPRPQMVPRP	0.0853

Sequence	shrunken log2 fold change
RRIRWRPPRLPRPRPRPQNSPRP	0.0838
RRIRWRPPRLPRPRPRPQPAPRP	0.812
RRIRWRPPRLPRPRPRPQPEPRP	0.139
RRIRWRPPRLPRPRPRPQSMPRP	0.0679
RRIRWRPPRLPRPRPRPQTCPRP	0.108
RRIRWRPPRLPRPRPRPQVFPRP	-0.0323
RRIRWRPPRLPRPRPRPQVSPRP	-0.0705
RRIRWRPPRLPRPRPRPQYRPRP	0.00862
RRIRWRPPRLPRPRPRPRAFPRP	0.57
RRIRWRPPRLPRPRPRPRAPPRP	0.84
RRIRWRPPRLPRPRPRPRAQPRP	0.56
RRIRWRPPRLPRPRPRPRAYPRP	0.224
RRIRWRPPRLPRPRPRPRCPPRP	0.264
RRIRWRPPRLPRPRPRPRCWPRP	0.616
RRIRWRPPRLPRPRPRPREKPRP	1.16
RRIRWRPPRLPRPRPRPRENPRP	0.707
RRIRWRPPRLPRPRPRPRFAPRP	0.695
RRIRWRPPRLPRPRPRPRFEPRP	0.225
RRIRWRPPRLPRPRPRPRFYPRP	-0.00432
RRIRWRPPRLPRPRPRPRGFPRP	0.25
RRIRWRPPRLPRPRPRPRHMPRP	-0.139
RRIRWRPPRLPRPRPRPRHVPRP	-0.0116
RRIRWRPPRLPRPRPRPRKGPRP	0.612
RRIRWRPPRLPRPRPRPRLTPRP	0.307
RRIRWRPPRLPRPRPRPRLWPRP	0.414

Sequence	shrunken log2 fold change
RRIRWRPPRLPRPRPRPRNVPRP	-0.0411
RRIRWRPPRLPRPRPRPRPGPRP	0.772
RRIRWRPPRLPRPRPRPRQMPRP	0.0196
RRIRWRPPRLPRPRPRPRQWPRP	0.0802
RRIRWRPPRLPRPRPRPRRSPRP	0.492
RRIRWRPPRLPRPRPRPRTFPRP	0.3
RRIRWRPPRLPRPRPRPRTTPRP	0.755
RRIRWRPPRLPRPRPRPRVTPRP	1.75
RRIRWRPPRLPRPRPRPRYMPRP	-0.139
RRIRWRPPRLPRPRPRPRYRPRP	0.124
RRIRWRPPRLPRPRPRPSCAPRP	0.145
RRIRWRPPRLPRPRPRPSCIPRP	-0.261
RRIRWRPPRLPRPRPRPSCSPRP	-0.349
RRIRWRPPRLPRPRPRPSCYPRP	-0.122
RRIRWRPPRLPRPRPRPSEHPRP	-0.0852
RRIRWRPPRLPRPRPRPSFCPRP	-0.136
RRIRWRPPRLPRPRPRPSFGPRP	-0.0482
RRIRWRPPRLPRPRPRPSIVPRP	-0.00221
RRIRWRPPRLPRPRPRPSKQPRP	0.143
RRIRWRPPRLPRPRPRPSLQPRP	0.0895
RRIRWRPPRLPRPRPRPSNAPRP	-0.0613
RRIRWRPPRLPRPRPRPSQSPRP	-0.0797
RRIRWRPPRLPRPRPRPSRTPRP	0.188
RRIRWRPPRLPRPRPRPSRYPRP	-0.483
RRIRWRPPRLPRPRPRPSSIPRP	-0.338

Sequence	shrunken log2 fold change
RRIRWRPPRLPRPRPRPSTPPRP	0.0706
RRIRWRPPRLPRPRPRPSVCPRP	0.104
RRIRWRPPRLPRPRPRPSVFPRP	0.222
RRIRWRPPRLPRPRPRPTADPRP	1.51
RRIRWRPPRLPRPRPRPTARPRP	0.0278
RRIRWRPPRLPRPRPRPTCCPRP	1.13
RRIRWRPPRLPRPRPRPTCPPRP	0.187
RRIRWRPPRLPRPRPRPTCTPRP	0.441
RRIRWRPPRLPRPRPRPTDAPRP	-0.0515
RRIRWRPPRLPRPRPRPTDCPRP	0.088
RRIRWRPPRLPRPRPRPTDGPRP	0.32
RRIRWRPPRLPRPRPRPTEQPRP	0.357
RRIRWRPPRLPRPRPRPTFHPRP	0.00721
RRIRWRPPRLPRPRPRPTGEPRP	0.306
RRIRWRPPRLPRPRPRPTGVPRP	0.334
RRIRWRPPRLPRPRPRPTHFPRP	-0.478
RRIRWRPPRLPRPRPRPTHHPRP	0.104
RRIRWRPPRLPRPRPRPTHKPRP	0.396
RRIRWRPPRLPRPRPRPTHWPRP	0.322
RRIRWRPPRLPRPRPRPTIWPRP	0.0311
RRIRWRPPRLPRPRPRPTLEPRP	0.608
RRIRWRPPRLPRPRPRPTLNPRP	0.139
RRIRWRPPRLPRPRPRPTMRPRP	0.925
RRIRWRPPRLPRPRPRPTNPPRP	-0.0172
RRIRWRPPRLPRPRPRPTNWPRP	0.206
